# Residue numbers refer to the chain shown, from its start. Numbers in names are those of the source.
# B1: N51Q + L178S + M398L: carboxypeptidase Y mutant N51Q + L178S + M398L (protein, UniProt P00729 112-532, looked up, variant N51Q L178S M398L)
# Carboxypeptidase Y: KIKDPKILGIDPNVTQYTGYLDVEDEDKHFFFWTFESRNDPAKDPVILWLQGGPGCSSLTGLFFELGPSSIGPDLKPIGNPYSWNSNATVIFLDQPVNVGFSYSGSSGVSNTVAAGKDVYNFLELFFDQFPEYVNKGQDFHIAGESYAGHYIPVFASEILSHKDRNFNLTSVLIGNGSTDPLTQYNYYEPMACGEGGEPSVLPSEECSAMEDSLERCLGLIESCYDSQSVWSCVPATIYCNNAQLAPYQRTGRNVYDIRKDCEGGNLCYPTLQDIDDYLNQDYVKEAVGAEVDHYESCNFDINRNFLFAGDWMKPYHTAVTDLLNQDLPILVYAGDKDFICNWLGNKAWTDVLPWKYDEEFASQKVRNWTASITDEVAGEVKSYKHFTYLRVFNGGHLVPFDVPENALSMVNEWIHGGFSL
# B2: N51Q + L178S: carboxypeptidase Y mutant N51Q + L178S (S1' and S1 subsites) (protein, UniProt P00729 112-532, looked up, variant N51Q L178S)
# Carboxypeptidase Y: B1 Carboxypeptidase Y with L398M
# B3: L178S + M398L: carboxypeptidase Y mutant L178S + M398L (S1 and S1' subsites) (protein, UniProt P00729 112-532, looked up, variant L178S M398L)
# Carboxypeptidase Y: B1 Carboxypeptidase Y with Q51N
# B4: N241D + W312L: carboxypeptidase Y mutant N241D + W312L (protein, UniProt P00729 112-532, looked up, variant N241D W312L)
# Carboxypeptidase Y: B1 Carboxypeptidase Y with Q51N, S178L, N241D, W312L, L398M
# B5: N241D + W312N: carboxypeptidase Y mutant N241D + W312N (protein, UniProt P00729 112-532, looked up, variant N241D W312N)
# Carboxypeptidase Y: B1 Carboxypeptidase Y with Q51N, S178L, N241D, W312N, L398M
# B6: N241D + W312A: carboxypeptidase Y mutant N241D + W312A (protein, UniProt P00729 112-532, looked up, variant N241D W312A)
# Carboxypeptidase Y: B1 Carboxypeptidase Y with Q51N, S178L, N241D, W312A, L398M
# B7: N241D + W312F: carboxypeptidase Y mutant N241D + W312F (protein, UniProt P00729 112-532, looked up, variant N241D W312F)
# Carboxypeptidase Y: B1 Carboxypeptidase Y with Q51N, S178L, N241D, W312F, L398M
# B8: L178A: carboxypeptidase Y S1 mutant, substitution L178A (protein, UniProt P00729 112-532, looked up, variant L178A)
# Carboxypeptidase Y: B1 Carboxypeptidase Y with Q51N, S178A, L398M
# B9: L178D + W312D: carboxypeptidase Y combination mutant L178D + W312D (protein, UniProt P00729 112-532, looked up, variant L178D W312D)
# Carboxypeptidase Y: B1 Carboxypeptidase Y with Q51N, S178D, W312D, L398M
# B10: L178D + W312N: carboxypeptidase Y combination mutant L178D + W312N (protein, UniProt P00729 112-532, looked up, variant L178D W312N)
# Carboxypeptidase Y: B1 Carboxypeptidase Y with Q51N, S178D, W312N, L398M
# B11: W312L: carboxypeptidase Y S1 mutant, substitution W312L (protein, UniProt P00729 112-532, looked up, variant W312L)
# Carboxypeptidase Y: B1 Carboxypeptidase Y with Q51N, S178L, W312L, L398M
# B12: L178D: carboxypeptidase Y S1 mutant, substitution L178D (protein, UniProt P00729 112-532, looked up, variant L178D)
# Carboxypeptidase Y: B1 Carboxypeptidase Y with Q51N, S178D, L398M
# B13: L178S + W312N: carboxypeptidase Y combination mutant L178S + W312N (protein, UniProt P00729 112-532, looked up, variant L178S W312N)
# Carboxypeptidase Y: B1 Carboxypeptidase Y with Q51N, W312N, L398M
# B14: W312N: carboxypeptidase Y S1 mutant, substitution W312N (protein, UniProt P00729 112-532, looked up, variant W312N)
# Carboxypeptidase Y: B1 Carboxypeptidase Y with Q51N, S178L, W312N, L398M
# B15: L245E + W312N: carboxypeptidase Y combination mutant L245E + W312N (protein, UniProt P00729 112-532, looked up, variant L245E W312N)
# Carboxypeptidase Y: B1 Carboxypeptidase Y with Q51N, S178L, L245E, W312N, L398M
# Test: Transpeptidation of Bz-G-A-R-A-R-X-OH at pH 7.5 at 50% substrate consumption, Table 4
# Type: biochemical
# Set-up: key to fa: fraction: aminolysis product / sum of all products formed
# Conditions: not given
# Method: (§1) Transamidation reactions were carried out generally as described in PCT Application WO 95/20039. In general, the method included dissolving the nucleophile (H-Leu-NH2, unless otherwise indicated) in 50 mM HEPES, 5 mM EDTA and adjusting the pH to 7.5, 5 μl of peptide substrate (8 mM Bz-G-A-R-A-R-A-OH, unless otherwise indicated, in methanol) was added to 190 μl nucleophile solution followed by 5 μl enzyme, resulting in a substrate concentration of 0.2 mM.
# (§2) During the reaction, 20 μl aliquots were removed from the reaction mixture and added to 50 μl 1% trifluoroacetic acid to quench the reaction. The reactant composition was determined by HPLC using a Waters HPLC equipped with a C-18 Waters Novapac 4μ reverse phase column and various gradients of acetonitrile in 0.1% trifluoroacetic acid. The separation was monitored at 254 nm allowing the direct quantification of the products from the integrated peak areas. The composition of the reaction mixture was determined at least twvice during the reaction, the first when 20-50% (preferably 35%) of the substrate had been consumed in the reaction and the second time when 50-90% (preferably 80%) of the peptide substrate had been consumed.
# (§3) The fraction of aminolysis (fa) was expressed as the ratio between the formed aminolysis product and the sum of all products formed. Unconsumed substrate was disregarded in the calculations.
# Site specific mutagenesis was performed as described for Example 1 to generate the specific mutants described below. Transamidation reactions were performed as described for Examples 1.
row,Molecule,"fraction of aminolysis for leucine as a leaving group, in words"
1,B1,improved

# Same assay, conditions: leaving group A, 375 mM H-Leu-NH2
row,Molecule,Pmax (peak product yield)
1,B1,>0.67
2,B2,0.60
3,B3,>0.48

# Same assay, conditions: leaving group A, 50% substrate consumption, 375 mM H-Leu-NH2
row,Molecule,fa
1,B1,0.87
2,B2,0.72
3,B3,0.77

# Same assay, conditions: leaving group A, 50% substrate consumption, 375 mM H-Leu-NH2, 2 mM substrate, [E] 0.1 mg/mL
row,Molecule,t [min]
1,B1,24
2,B2,34
3,B3,41

# Same assay, conditions: leaving group I, 50% substrate consumption, 375 mM H-Leu-NH2
row,Molecule,fa
1,B1,0.82
2,B2,0.62
3,B3,0.54

# Same assay, conditions: leaving group I, 50% substrate consumption, 375 mM H-Leu-NH2, 2 mM substrate, [E] 0.1 mg/mL
row,Molecule,t [min]
1,B1,129
2,B2,211
3,B3,33

# Same assay, conditions: leaving group L, 375 mM H-Leu-NH2
row,Molecule,Pmax (peak product yield)
1,B1,>0.73
2,B2,0.18
3,B3,>0.39

# Same assay, conditions: leaving group L, 375 mM H-Leu-NH2, listed as N51Q+L178S+M398L
row,Molecule,Pmax (peak product yield)
1,B1,0.73

# Same assay, conditions: leaving group L, 50% substrate consumption, 375 mM H-Leu-NH2
row,Molecule,fa
1,B1,0.76
2,B2,0.20
3,B3,0.39

# Same assay, conditions: leaving group L, 50% substrate consumption, 375 mM H-Leu-NH2, 2 mM substrate, [E] 0.1 mg/mL
row,Molecule,t [min]
1,B1,52
2,B2,23
3,B3,1

# Same assay, conditions: leaving group M, 50% substrate consumption, 375 mM H-Leu-NH2
row,Molecule,fa
1,B1,0.75
2,B2,0.51
3,B3,0.17

# Same assay, conditions: leaving group M, 50% substrate consumption, 375 mM H-Leu-NH2, 2 mM substrate, [E] 0.1 mg/mL
row,Molecule,t [min]
1,B1,84
2,B2,211
3,B3,17

# Same assay, conditions: leaving group V, 50% substrate consumption, 375 mM H-Leu-NH2
row,Molecule,fa
1,B1,0.82
2,B2,0.62
3,B3,0.45

# Same assay, conditions: leaving group V, 50% substrate consumption, 375 mM H-Leu-NH2, 2 mM substrate, [E] 0.1 mg/mL
row,Molecule,t [min]
1,B1,168
2,B2,194
3,B3,30

# Test: Transamidation of Bz-G-A-R-A-R-A-OH, Table 6
# Type: biochemical
# Conditions: [S] = 2 mM; H-Leu-NH2 375 mM; pH 7.5; [E] 0.1 mg/mL
row,Molecule,fa
1,B4,0.05
2,B5,0.17
3,B6,0.28
4,B7,0.24
5,B3,0.91

# Test: Transamidation of FA-Arg-Ala-OH, Table 6
# Type: biochemical
# Conditions: [S] = 2 mM; H-Leu-NH2 375 mM; pH 7.5; [E] 0.1 mg/mL
Molecule,Pmax,fa
B4,0.37,0.50
B5,0.58,0.74
B6,0.72,0.80
B7,0.58,0.70
B3,0.90,.99

# Test: Transamidation of Bz-G-A-R-A-R-A-OH, Table 6
# Type: biochemical
# Conditions: [S] = 2 mM; H-Leu-NH2 375 mM; pH 7.5; [E] 0.1 mg/mL
# Remark: another data set of the same source
# Method: as §1, with “resulting in a substrate concentration of 0.2 mM.” left out
# as §2, §3
# Site specific mutagenesis was performed as described for Example 1 to generate the specific mutants described below. Transamidation reactions were performed as described in the previous examples.
row,Molecule,Pmax
1,B4,0.05
2,B5,0.13
3,B6,0.20
4,B7,0.17

# Test: Transpeptidation of Bz-G-A-R-A-R-A-OH (arginine at P1) with H-Leu-NH2, Table 1
# Type: biochemical
# Conditions: [N] 375 mM H-Leu-NH2; 2mM substrate; pH 7.5; [E] 0.1 mg/mL
# Method: The mutant carboxypeptidase enzvmes used in these studies were produced by site-directed mutagenesis, essentially following the procedures described in published PCT Patent Application No. WO 95/20039. In general, oligonucleotides synthesized to encode the amino acid substitution were used to produce the mutant enzymes.
# as §1, with “resulting in a substrate concentration of 0.2 mM.” left out
# as §2
# The reaction products were collected and identified by amino acid analysis after acid hydrolysis using a Pharmacia Alpha Plus analyzer. Further identification was obtained by co-chromatography of authentic standard compounds.
# as §3
row,Molecule,fa (fraction of aminolysis)
1,B8,0.45
2,B9,0.71
3,B10,0.71
4,B11,0.07
5,B12,0.81
6,B13,0.63
7,B14,0.23
8,B15,0.20

# Test: Transpeptidation of Bz-G-A-R-A-R-X-OH at pH 6.5 at 50% substrate consumption, Table 5
# Type: biochemical
# Set-up: key to fa: fa = aminolysis product / sum of all products formed
# Conditions: leaving group A, 750 mM H-Leu-NH2
# Method: as §1, with “[…],” for “5 mM EDTA and adjusting the pH to 7.5,”
# as §2
# The fraction of aminolysis (fa) was expressed as the ratio between the formed aminolysis product and the sum of all products formed. Unconsumed substrate was disregarded in the calculations. […]
row,Molecule,Pmax (peak product yield)
1,B1,0.70
2,B2,0.78
3,B3,0.48

# Same assay, conditions: leaving group A, 50% substrate consumption, 750 mM H-Leu-NH2
row,Molecule,fa
1,B1,0.91
2,B2,0.87
3,B3,0.92

# Same assay, conditions: leaving group A, 50% substrate consumption, 750 mM H-Leu-NH2, 2 mM substrate, [E] 0.1 mg/mL
row,Molecule,t [min]
1,B1,194
2,B2,31
3,B3,53

# Same assay, conditions: leaving group L, 750 mM H-Leu-NH2
row,Molecule,Pmax (peak product yield)
1,B1,0.80
2,B2,0.26
3,B3,0.54

# Same assay, conditions: leaving group L, 50% substrate consumption, 750 mM H-Leu-NH2
row,Molecule,fa
1,B1,0.84
2,B2,0.28
3,B3,0.54

# Same assay, conditions: leaving group L, 50% substrate consumption, 750 mM H-Leu-NH2, 2 mM substrate, [E] 0.1 mg/mL
row,Molecule,t [min]
1,B1,36
2,B2,19
3,B3,19

# Reference: patent US20010010923A1, “MODIFIED CARBOXYPEPTIDASE” (priority 1997, published 2001)
